# Test results: the RNAGym collection of RNA variant scans (doi:10.7554/elife.90254)
# B1: LINE1-full (parent)
# chain: UACGUAGGUGGUUUUCCCCUGAUAGUGCUAAGGGGGCCUGGAAGUUUGGACUGGGCAGAGCUCAACACAGCGUGGCAAAGUGGCUGUGGCUAGACUGCCUCUCUGGAUUCCUCGUCACUCAGCAGGGCAUCUCUGAGAGAAAUGCC
# Variants of: B1
# Test: self-cleavage, relative activity (ratio to wild type); higher = more cleavage; in vitro, sequencing; the parent is a self-cleaving ribozyme
row,Variant,self-cleavage
1,U14C U112A,1.17
2,U13C U62G,0
3,U13C U62A,0.12
4,U13C U62C,0.09
5,U15A A117G,1.24
6,U14C A79U,1.97
7,U14G U115C,0.79
8,U13C C128A,0.79
9,U13C C128U,0.78
10,U13C G126U,1.2
11,U14A A138G,1.15
12,U14C U20C,1.05
13,U14A U132C,1.35
14,U14C C99A,0.86
15,U14A U104A,1.16
16,U14A U104C,1.69
17,U13C U47C,1.56
18,U13C G105A,1.33
19,U14A U23C,1.44
20,U14A U47C,1.14
21,U15A C113U,0.44
22,U14C U29C,1.4
23,U13C U23C,0.41
24,U14C G36U,1.31

row,Variant,self-cleavage
1,U14C G36A,1.55
2,U13C G89A,0.04
3,U13C U115A,1.3
4,U13C U115C,1.53
5,U14C U47G,1.4
6,U14C U47C,1.56
7,U14C U102C,1.09
8,U14G C66U,0.06
9,U14C A65U,0.19
10,U14C G25U,1.26
11,U14C G25C,0.5
12,U14C A59U,0.88
13,U13C U81C,1.05
14,U14C A129U,1.35
15,U13C G35A,1.13
16,U14G U47C,1.02
17,U15A A42G,1.31
18,U13G U100A,0.77
19,U13C C120U,1.05
20,U13G G58A,0.17
21,U14G G36U,1.51
22,U13C U39C,1.08
23,U14C U26A,0.95
24,U13C C145A,1.6

row,Variant,self-cleavage
1,U14G A57G,2.19
2,U13G A129G,1.46
3,U13C U85A,0.13
4,U14A C28U,0.66
5,U14C A77G,1.73
6,U14C A77C,2.68
7,U15A,0.96
8,U13G U132G,2.18
9,U14A U81G,0.8
10,U14A U81C,1.1
11,U14A U81A,2.09
12,U14C C18A,1.24
13,U14A U102A,0.99
14,U15A A30G,1.16
15,U13C G53U,1.11
16,U13C G53C,2.02
17,U14C C131A,1.15
18,U14C G34A,0.92
19,U14C G34U,0.45
20,U15A A78G,0.99
21,U14A U109C,1.05
22,U14C C68A,0.09
23,U14C C68U,0.32
24,U14C U104C,1.51

row,Variant,self-cleavage
1,U14A U46C,1.17
2,U14A U46A,0.86
3,U13C U132A,1.3
4,U13C U132C,1.2
5,U13C G135A,0.75
6,U13G U39C,0.7
7,U14A U26A,0.79
8,U14C U39G,0.36
9,U14A G70A,0.19
10,U13C G36A,1.2
11,U13C G144A,1.91
12,U14C A92U,0.89
13,U14C A92G,0.14
14,U14C C19U,0.83
15,U13C G54A,0.62
16,U13C G54U,0.6
17,U13G U104A,1.39
18,U13C U15C,1.03
19,U14A A50G,1.25
20,U14C G83A,1.07
21,U13C C103A,1
22,U13C C103U,1.06
23,U14G A140U,0.64
24,U13C C99U,0.48

row,Variant,self-cleavage
1,U13G G114A,0.64
2,U14C C123U,1.05
3,U14C U109C,1.25
4,U15A A77U,0.98
5,U15A A77G,0.89
6,U14A A129G,1.84
7,U14A U62A,0.05
8,U14C G127A,1
9,U14C G127U,1.73
10,U14C A69G,0.6
11,U15A G48C,0.71
12,U15A G40A,1.24
13,U13G U47C,1.17
14,U14G A42U,0.76
15,U14G A42G,1.15
16,U13C U20G,0.69
17,U13C U20C,1.06
18,U13C U100A,0.7
19,U13C U100C,1.4
20,U15A C146U,0.88
21,U13C G139U,1.19
22,U14C U115C,1.31
23,U14A U143C,1
24,U13C C18U,1.57

row,Variant,self-cleavage
1,U13C U130A,1.6
2,U13C U130C,1.2
3,U14G U96C,0
4,U14C A22U,2.36
5,U14C U108C,1.44
6,U13C G106A,1.51
7,U14C G139U,1.63
8,U14C G32U,1.03
9,U14C G32C,1.58
10,U13C C71A,0.24
11,U13C C71U,0.58
12,U14C,1.15
13,U14A,1.01
14,U14G,0.82
15,U14A U39C,0.95
16,U14A U39A,0.8
17,U13C U143A,1.17
18,U13C U134G,1.04
19,U13C U134A,1.03
20,U13C A138U,1.31
21,U13C A138C,1.13
22,U14C A117G,1.22
23,U14G U85C,0.92
24,U14C A142G,1.34

row,Variant,self-cleavage
1,U13C G72A,1.22
2,U14A A142G,0.85
3,U14C A94G,0.31
4,U14C A94C,0.09
5,U13C C17U,1.19
6,U14A A141G,1
7,U14A U96C,0.04
8,U14C G41U,0.71
9,U13G U45C,0.78
10,U14C U45C,1.21
11,U14C U134G,1.23
12,U14C A121U,1.25
13,U14C A121C,1.13
14,U14C A121G,1.3
15,U15A A107G,0.81
16,U14A A77G,1.39
17,U13G A67U,0.13
18,U13G A67G,1.9
19,U13C C90U,0.04
20,U14C U85G,0
21,U15A A43G,0.97
22,U15A A43U,0.87
23,U15A A136U,0.35
